Here are results for one substance from publication PMC5718999.

Experiment [1] deals with genetically engineered calmodulin (CaM) with cysteine on N-terminus (UniProt P0DP23). As to the kind of experiment: atomic force microscopy (height of the immobilised protein pattern); CaM immobilised by cysteine-Hg-SH coupling on MUTMS patterns on OTS-coated silicon; soaked 10 min in CaM KI binding domain solution at 4 °C, rinsed with buffer; imaged in air, ac mode, 75% relative humidity, 25 °C; height from topography histograms.

For experiment [2] the target is unchanged. As to the kind of experiment: atomic force microscopy (height of the immobilised protein pattern); CaM immobilised by cysteine-Hg-SH coupling on MUTMS patterns on OTS-coated silicon; soaked 10 min in 1 g mL^-1 CaM KI binding domain solution at 4 °C, rinsed with buffer; imaged in air, ac mode, 75% relative humidity, 25 °C; height from topography histograms.

For the substance “Calmodulin-dependent protein kinase I (299-320) binding domain (from UniProt Q63450 299-320) (peptide)”, in experiment [1], the apparent height above OTS of the KIBD-CaM pattern stood at 4.2 nm. This substance also yielded an increase of the height of the CaM layer in experiment [2] of 11.3 Å.
